# B1: FIXa-Y155F/K228N/R318Y/R338E/R403E/E410N (protein)
# chain 1: YNSGKLEEFVQGNLERECMEEKCSFEEAREVFENTERTTEFWKQYVDGDQCESNPCLNGGSCKDDINSYECWCPFGFEGKNCELDVTCNIKNGRCEQFCKNSADNKVVCSCTEGYRLAENQKSCEPAVPFPCGRVSVSQTSKLTR
# chain 2: VVGGEDAKPGQFPWQVVLNGKVDAFCGGSIVNEKWIVTAAHCVETGVNITVVAGEHNIEETEHTEQKRNVIRIIPHHNYNAAINKYNHDIALLELDEPLVLNSYVTPICIADKEYTNIFLKFGSGYVSGWGRVFHKGYSALVLQYLRVPLVDRATCLESTKFTIYNNMFCAGFHEGGRDSCQGDSGGPHVTEVEGTSFLTGIISWGEECAMKGKYGIYTKVSEYVNWIKNKTKLT
# B2: FIXa-D85N/K228N/R318Y/R338E/R403E/E410N (protein)
# chain 1: YNSGKLEEFVQGNLERECMEEKCSFEEAREVFENTERTTEFWKQYVDGDQCESNPCLNGGSCKDDINSYECWCPFGFEGKNCELNVTCNIKNGRCEQFCKNSADNKVVCSCTEGYRLAENQKSCEPAVPFPCGRVSVSQTSKLTR
# chain 2: VVGGEDAKPGQFPWQVVLNGKVDAFCGGSIVNEKWIVTAAHCVETGVNITVVAGEHNIEETEHTEQKRNVIRIIPHHNYNAAINKYNHDIALLELDEPLVLNSYVTPICIADKEYTNIFLKFGSGYVSGWGRVFHKGYSALVLQYLRVPLVDRATCLESTKFTIYNNMFCAGFHEGGRDSCQGDSGGPHVTEVEGTSFLTGIISWGEECAMKGKYGIYTKVSEYVNWIKNKTKLT
# B3: FIXa-R318Y/R338E/N346D/R403E/E410N (protein)
# chain 1: YNSGKLEEFVQGNLERECMEEKCSFEEAREVFENTERTTEFWKQYVDGDQCESNPCLNGGSCKDDINSYECWCPFGFEGKNCELDVTCNIKNGRCEQFCKNSADNKVVCSCTEGYRLAENQKSCEPAVPFPCGRVSVSQTSKLTR
# chain 2: VVGGEDAKPGQFPWQVVLNGKVDAFCGGSIVNEKWIVTAAHCVETGVKITVVAGEHNIEETEHTEQKRNVIRIIPHHNYNAAINKYNHDIALLELDEPLVLNSYVTPICIADKEYTNIFLKFGSGYVSGWGRVFHKGYSALVLQYLRVPLVDRATCLESTKFTIYDNMFCAGFHEGGRDSCQGDSGGPHVTEVEGTSFLTGIISWGEECAMKGKYGIYTKVSEYVNWIKNKTKLT
# B4: FIXa-K228N/R318Y/R338E/R403E/E410N (protein)
# chain 1: YNSGKLEEFVQGNLERECMEEKCSFEEAREVFENTERTTEFWKQYVDGDQCESNPCLNGGSCKDDINSYECWCPFGFEGKNCELDVTCNIKNGRCEQFCKNSADNKVVCSCTEGYRLAENQKSCEPAVPFPCGRVSVSQTSKLTR
# chain 2: VVGGEDAKPGQFPWQVVLNGKVDAFCGGSIVNEKWIVTAAHCVETGVNITVVAGEHNIEETEHTEQKRNVIRIIPHHNYNAAINKYNHDIALLELDEPLVLNSYVTPICIADKEYTNIFLKFGSGYVSGWGRVFHKGYSALVLQYLRVPLVDRATCLESTKFTIYNNMFCAGFHEGGRDSCQGDSGGPHVTEVEGTSFLTGIISWGEECAMKGKYGIYTKVSEYVNWIKNKTKLT
# Tests used:
# [1] = molecular target: plasma purified human AT-III (antithrombin III); experiment: AT-III/UFH inhibition K0.5, ratio to Catalyst Biosciences WT FIXa
# [2] = molecular target: plasma purified human antithrombin III (AT-III), as complex with unfractionated heparin; experiment: ratio of K0.5 (lower limit) to Catalyst Biosciences WT FIXa, AT-III/UFH inhibition
# Sequence of Factor X (FX), P00742 (P00742 whole entry, looked up): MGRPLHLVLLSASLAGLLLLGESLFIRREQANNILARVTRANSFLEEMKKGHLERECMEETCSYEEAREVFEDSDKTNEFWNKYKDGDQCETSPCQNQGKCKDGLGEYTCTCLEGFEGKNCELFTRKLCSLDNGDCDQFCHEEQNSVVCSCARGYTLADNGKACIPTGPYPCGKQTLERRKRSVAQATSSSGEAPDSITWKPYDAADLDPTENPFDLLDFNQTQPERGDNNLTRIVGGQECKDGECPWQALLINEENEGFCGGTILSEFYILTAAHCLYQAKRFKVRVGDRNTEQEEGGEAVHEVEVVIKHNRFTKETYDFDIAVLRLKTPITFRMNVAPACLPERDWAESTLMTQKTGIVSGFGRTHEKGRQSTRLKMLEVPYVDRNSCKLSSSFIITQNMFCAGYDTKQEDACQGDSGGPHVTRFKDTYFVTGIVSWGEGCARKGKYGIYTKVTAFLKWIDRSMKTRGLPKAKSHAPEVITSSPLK
# Sequence of Factor X, P00742 (P00742 whole entry, looked up): as above
Protein,"% of WT kcat/KM (Factor X (FX), P00742) [%]","kcat (Factor X (FX), P00742) [s⁻¹]","kcat/KM (Factor X (FX), P00742) [M⁻¹ s⁻¹]","% of WT kcat/KM (Factor X, P00742) [%]","KM (Factor X, P00742) [µM]","kcat/KM (Factor X, P00742) [M⁻¹ s⁻¹]",K0.5-mut/K0.5-wt [1],K0.5-mut/K0.5-wt [2],"KM (Factor X (FX), P00742) [µM]","kcat of FX activation by FIXa (Xase complex with FVIIIa, PC/PS vesicles, Ca2+) (Factor X (FX), P00742) [s⁻¹]"
B1,356,9.7,1.6e+08,453,0.048,2e+08,> 517,517,,
B2,336,6,1.6e+08,346,0.0393,1.6e+08,> 517,517,,
B3,,,,,,,> 517,517,0.0777,2.5
B4,,,,349,0.0361,1.6e+08,> 517,517,,

# — patent publication US20210238260
